Experimental data taken from patent publication US7396682B2, “Method for cell adhesion and wound healing” (Regen Biotech, Inc., priority 2000, dated 2008).
Entries after “also recorded” stand apart in the source; their conditions may differ.

Experiments:
HCE cells [1] = assay: Divalent cation sensitivity of βig-h3-mediated adhesion; format: cell-based, human; conditions: cells incubated 30 min with divalent cations in HBS
Description: To analyze the divalent cation sensitivity of βig-h3-mediated adhesion, cells were suspended in HEPES-buffered saline (HBS) (150 mM NaCl, 25 mM HEPES, 2 mM EDTA, pH 7.4) at a density of 2×10^5 cells/ml and incubated at 37° C. for 30 min. Then, they were washed twice in HBS and resuspended in the same buffer. Aliquots of cells (50 μl) were then added to the microculture plate wells and incubated for 30 min at 37° C. in a humidified atmosphere of 5% CO2 with 50 μl aliquots of HBS containing divalent cations (MnCl2, MgCl2 or CaCl2) at a concentration twice as large as the final concentration. Subsequently, they were plated on ligand-coated dishes to perform the adhesion assay.

[2] = system: Human corneal epithelial (HCE) cells; assay: HCE cell adhesion and spreading assay on protein-coated plates; format: cell-based
Description: Human corneal epithelial (HCE) cells used in this assay were cultured in DMEM ([…], Gibco BRL) supplemented with 15% fetal bovine serum, Gentamicin (40 μg/ml), insulin (5 μg/ml), cholera toxin (0.1 μg/ml) and human epidermal growth factor (hEGF) at 37° C. in 5% CO2.
The cell adhesion assay was performed as follows. First, the recombinant βig-h3 proteins or other extracellular matrix proteins were let to adhere to the bottoms of 96-well microculture plates (Falcon) by incubation at 37° C. for 1 hour and blocked with PBS containing 0.2% BSA. The coated extracellular matrix proteins were human plasma vitronectin (Promega), purified human plasma fibronectin (pFN), chicken collagen types I and II (Chemicon International Inc.), bovine collagen types IV and VI (Chemicon), mouse laminin (Chemicon), and bovine serum albumin (BSA) (Sigma). Cells were trypsinized and suspended in the culture media at a density of 2×10^5 cells/ml. 0.1 ml of the cell suspension was added to each well of the plates coated with the recombinant proteins.
Following incubation at 37° C. for 1 hour, unattached cells were removed by rinsing with PBS. Attached cells were incubated for 1 hour at 37° C. in 50 mM citrate buffer, pH 5.0, containing 3.75 mM p-nitrophenol-N-acetyl 1-β-D-glycosaminide as a hexosaminidase substrate and 0.25% Triton X-100, followed by the addition of 50 mM glycine buffer, pH 10.4, containing 5 mM EDTA to block the enzyme activity. A measurement was made of absorbance at 405 nm in a Multiskan MCC/340 microplate reader.
To determine cell area as an index for cell adhesion activity, 4×10^4 cells were applied to substrates in 48-well culture plates. The attached cells were fixed weith 8% glutaraldehyde (Sigma) and then stained with 0.25% Crystal Violet (Sigma) in 20% methanol. Measurement of cell areas was performed by Image-Pro plus software (Media Cybernetics). Experiments were repeated in triplicate with 200 or 300 measurements per site for each experiment. Data is reported as the mean area at specific time points±standard error of mean.

HCE cells [3] = assay: Inhibition assay of HCE cell adhesion using matrix peptides and reagents; format: cell-based, human; conditions: HCE cells preincubated 30 min with reagent
Description: In order to identify cell surface receptors involved in the cell adhesion activity of βig-h3 protein, an inhibition assay was performed using various reagents.
Initially, plastic culture dishes were coated with 10 μg/ml fibronectin, βigh3-WT or βigh3-ΔRGD. HCE cells were preincubated for 30 min in media containing 5 mM EDTA, 100 μg/ml βigh3-WT, 100 μg/ml βigh3-ΔRGD, 1 mM RGD, 1 mM RGE or 100 μg/ml fibronectin, or none of them, and then assayed for cell adhesion as in Example 1.

K562 cells = assay: K562 cell adhesion to coated proteins (hexosaminidase analysis); format: cell-based; conditions: 1 hour
Description: For another control experiment, K562 cells, known to express α5, but not α3 integrin, were used. K562 cells were inoculated onto plates coated with βigh3-WT, fibronectin, laminin, or type I collagen and incubated for 1 hour, followed by the hexosaminidase analysis.

[4] = system: dermal whole layer wounds on the backs of rats; assay: Wound healing with ointment bases on dermal whole layer wounds (2 cm) of rats; format: in vivo, rat; parameters: key to Formation grade of collagenous fibers at wound: 0: negative; 1+: insignificant; 2+: scatteringly formed; 3+: very dense; key to Re-ephithelialization of Wound (grade): 0: zero was set for the formation of no epithelial layers; 1+ for initiation of epithelialization; 2+ for incomplete epithelial layer structure; 3+ for complete epithelial layer structure; conditions: for wound area: ointment 100 μg/ml, 1 g per day, mean
Description: To compare wound healing activity between the recombinant βig-h3 protein His-β-b, which contains all of the four fas-1 domains, like native βig-h3 protein, and the recombinant βig-h3 protein βigh3-D-IV, which contains the 4th domain alone, ointment bases comprising the recombinant proteins were tested as follows.
Four dermal whole layer wounds, each 2 cm in diameter, were made on the backs of rats and divided into test groups 1-A, 1-B, 1-C and 1-D according to the ointment applied thereto.
1-A: coated at a dose of 1 gm per day with an ointment base combined with no materials.
1-B: coated at a dose of 1 gm per day with an ointment in which fibronectin was combined at a concentration of 100 μg/ml with a base.
1-C: coated at a dose of 1 g per day with an ointment in which Hisβ-b protein was combined at a concentration of 100 μg/ml with a base.
1-D: coated at a dose of 1 g per day with an ointment in which βigh3-D-IV protein was combined at a concentration of 100 μg/ml with a base.
The backs of etherized rats were shaved, followed by sterilizing the shaved region with betadin solution. In test group 1, the back of each rat was cut by use of a No. 15 surgical blade to form four circular wounds with a diameter of 2 cm penetrating the whole dermal layers. Ointments for test groups 1-A, 1-B, 1-C and 1-D were applied at an amount of about 1 g to the wounds which were then covered with a synthetic dressing (Tegaderm® 3M) and lightly bandaged. Application of ointments was performed once every day.
With a base of an aqueous material (SamA base), each of the ointments contained, per 1 g, spermaceti 38 mg, stearyl alcohol 116 mg, polyethylglycol 38 mg, conc. glycerin 192 mg, ethanol 23 mg, […], ethyl paraoxybenzoate 0.87 mg, butyl paraoxybenzoate 0.12 mg, and purified water.
First, morphologies of wounds were observed. The same scale was positioned near each wound and pictures were taken at the same distance from each wound. Pictures were scanned in a computer and used to measure areas of the wounds with the aid of NIH image analysis system (Bio-Optics). To take the pictures, the muscle was completely relaxed by etherizing the rats. Measurements were performed once every other day until the 22nd day. For comparing test groups, the measured values were analyzed according to ANOVA test and Scheffer's test.
Histological analysis was conducted under an optical microscope. Biopsies of wound sites were taken at days 3, 7, 10, 14 and 20, and fixed in 10% formalin and solidified with paraffin. 6 μm slices of the samples were dyed with hematoxylin-eosin (H&E) and Masson's trichrome before observation under a microscope. Wound healing effects according to time of each test material were evaluated through re-epithelialization and formation of collagenous fibers. In the case of re-epithelialization, epithelial formation was semi-quantified in such a way that zero was set for the formation of no epithelial layers, 1+ for initiation of epithelialization, 2+ for incomplete epithelial layer structure, and 3+ for complete epithelial layer structure. Regarding comparison among test groups and differences according to time within each group, measured values were statistically analyzed using ANOVA test and Scheffe's test. As for collagenous fiber formation, it was graded as 1+ for insignificant formation of collagenous fibers as observed with trichrome dye, 2+ for scatteringly spaced collagenous fibers, and 3+ for dense collagenous fibers.

[5] = Expression form and non-denaturing gel electrophoresis of recombinant proteins; format: physicochemical; conditions: electrophoresis using non-denaturing gel
Description: The recombinant proteins containing at least one 4th domain, such as βig3-D-IV, 2X, 3X and 4X were prepared as follows. A DNA fragment encoding to amino acid 498-637 corresponding the 4th domain was obtained by PCR and the PCR products were blunt-ended by Klenow enzyme. This blunt-ended cDNA fragment was inserted to the EcoRV site of the pβig-h3 D-IV, which contained the 4th domain of βig-h3, and the resulting expression vector was named pβI-h3 D-IV 2X. The insert of the pβig-h3 D-IV 2X was excised by digestion with EcoRV and XhoI and blunt-ended by treatment with Klenow, followed by inserting the blunt-ended fragment into EcoRV sites of pβig-h3 D-IV and pβig-h3 D-IV 2X. The resulting expression vectors were named pβig-h3 D-IV 3X and pβig-h3 D-IV 4X. Expression of all recombinant proteins was induced for 3 hours in the presence of 1 mM IPTG and isolated by use of Ni-NTA resin (Qiagen).

Molecule: [Cl][Mn][Cl] [Mn^2+, MnCl2]
- promotion of cell adhesion to βig-h3 by divalent cations (HCE cells [1]): strongly promoted

Molecule: [Ca+2].[Cl-].[Cl-] [Ca^2+, CaCl2]
- promotion of cell adhesion to βig-h3 by divalent cations (HCE cells [1]): only marginally

B1: βigh3-WT: wild-type human recombinant βig-h3 protein (SEQ ID NO: 22) (protein, UniProt Q15582 24-683, looked up)
Transforming growth …: GPAKSPYQLVLQHSRLRGRQHGPNVCAVQKVIGTNRKYFTNCKQWYQRKICGKSTVISYECCPGYEKVPGEKGCPAALPLSNLYETLGVVGSTTTQLYTDRTEKLRPEMEGPGSFTIFAPSNEAWASLPAEVLDSLVSNVNIELLNALRYHMVGRRVLTDELKHGMTLTSMYQNSNIQIHHYPNGIVTVNCARLLKADHHATNGVVHLIDKVISTITNNIQQIIEIEDTFETLRAAVAASGLNTMLEGNGQYTLLAPTNEAFEKIPSETLNRILGDPEALRDLLNNHILKSAMCAEAIVAGLSVETLEGTTLEVGCSGDMLTINGKAIISNKDILATNGVIHYIDELLIPDSAKTLFELAAESDVSTAIDLFRQAGLGNHLSGSERLTLLAPLNSVFKDGTPPIDAHTRNLLRNHIIKDQLASKYLYHGQTLETLGGKKLRVFVYRNSLCIENSCIAAHDKRGRYGTLFTMDRVLTPPMGTVMDVLKGDNRFSMLVAAIQSAGLTETLNREGVYTVFAPTNEAFRALPPRERSRLLGDAKELANILKYHIGDEILVSGGIGALVRLKSLQGDKLEVSLKNNVVSVNKEPVAEPDIMATNGVVHVITNVLQPPANRPQERGDELADSALEIFKQASAFSRASQRSVRLAPVYQKLLERMKH
- cell adhesion and spreading activity (numbers and surface areas of attached HCE cells) ([2]; HCE cells on coated protein, 1 hour at 37° C.): clearly greater than those attached to albumin
- inhibition of cell adhesion to fibronectin (HCE cells [3]; dishes coated with 10 μg/ml fibronectin): partially inhibited
- inhibition of cell adhesion to βig-h3 (HCE cells [3]; dishes coated with 10 μg/ml βig-h3): significantly inhibited
- adhesion of K562 cells to coated protein (K562 cells): did not adhere

B2: βig-h3 D-IV: recombinant polypeptide, 4th fas-1 domain of βig-h3, amino acids 498-637 (SEQ ID NO:26) (protein)
chain: LTPPMGTVMDVLKGDNRFSMLVAAIQSAGLTETLNREGVYTVFAPTNEAFRALPPRERSRLLGDAKELANILKYHIGDEILVSGGIGALVRLKSLQGDKLEVSLKNNVVSVNKEPVAEPDIMATNGVVHVITNVLQPPAN
modifications: left off: small tags and cut ends
- HCE cell adhesion activity ([2]; HCE cells on coated recombinant protein): equally active compared to the wild type βig-h3; also recorded: high cell attachment activity
- wound area ([4]; Day 0): 3.15
- wound area ([4]; Day 2): 2.62 cm²
- Formation grade of collagenous fibers at wound ([4]; Day 3): 1+
- Re-ephithelialization of Wound (grade) ([4]; Day 3): 0
- wound area ([4]; Day 4): 2.37
- wound area ([4]; Day 6): 1.98
- Re-ephithelialization of Wound (grade) ([4]; Day 7): 0
- Formation grade of collagenous fibers at wound ([4]; Day 7, listed as 1-D): +1
- Formation grade of collagenous fibers at wound ([4]; Day 7, listed as βigD-IV): 1+
- wound area ([4]; Day 8): 1.51 cm²
- Formation grade of collagenous fibers at wound ([4]; Day 10): 2+
- Re-ephithelialization of Wound (grade) ([4]; Day 10): 1+
- wound area ([4]; Day 10): 0.98 cm²
- wound area ([4]; Day 12): 0.44
- Formation grade of collagenous fibers at wound ([4]; Day 14): 3+
- Re-ephithelialization of Wound (grade) ([4]; Day 14): 2+
- wound area ([4]; Day 14): 0.22
- wound area ([4]; Day 16): 0.20
- wound area ([4]; Day 18): 0.18
- Formation grade of collagenous fibers at wound ([4]; Day 20): 3+
- Re-ephithelialization of Wound (grade) ([4]; Day 20): 3+
- wound area ([4]; Day 20): 0.13
- wound area ([4]; Day 22): 0.06
- completion of re-epithelialization ([4]; optical microscope): 20 days
- polymer formation [5]: did not form polymers
